Results published in publication doi:10.1101/2025.10.16.681972 (bioRxiv, 2025).

Target: recombinant soluble form (ectodomain) of human MERTK (Homo sapiens, UniProt Q12866)
Assay: SPR

Chain of recombinant soluble form (ectodomain) of human MERTK (Q12866 21-505): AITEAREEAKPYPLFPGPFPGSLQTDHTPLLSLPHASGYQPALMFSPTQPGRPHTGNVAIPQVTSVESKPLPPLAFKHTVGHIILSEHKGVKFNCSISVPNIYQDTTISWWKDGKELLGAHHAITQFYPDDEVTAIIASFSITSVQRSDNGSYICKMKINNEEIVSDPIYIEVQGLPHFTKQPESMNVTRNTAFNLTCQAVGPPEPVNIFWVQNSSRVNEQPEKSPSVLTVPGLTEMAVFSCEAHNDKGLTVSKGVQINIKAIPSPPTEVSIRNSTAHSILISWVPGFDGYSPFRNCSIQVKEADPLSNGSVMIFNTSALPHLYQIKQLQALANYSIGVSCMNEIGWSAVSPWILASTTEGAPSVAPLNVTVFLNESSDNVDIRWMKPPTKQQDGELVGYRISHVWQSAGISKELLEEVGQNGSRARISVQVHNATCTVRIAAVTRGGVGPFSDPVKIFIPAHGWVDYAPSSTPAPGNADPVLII

binding result: binds
B1: recombinant mAb745 (anti-MERTK, variable regions of mAb745 on human IgG1 and kappa constant regions) (antibody, V domains shown)
VH: DVQIQESGPGLVKSSQSLSLTCTVTGYSITNDYAWNWIRQFPGNKLEWMGYISYNGNTFYNPSLKSRISITRDTSKNQFFLQLSSVTTEDTATYYCGRLLPVSYAMDYWGQGTSVTVSS
VL: DVVMTQTPLSLPVSLGDQASISCRSSQSLVHSNGNTYLHWYLQKPGQSPKLLIYKVSNRFSGVPDRFSGSGSGTDFTLKISRVEAEDLGVYFCYQSTHVPWTFGGGTKLEIK
